Experimental data taken from patent US20050124036.

Legend:
[1] = target: T1, plasminogen according to the present invention (20 mg/ml, Example 8)
T1 chain: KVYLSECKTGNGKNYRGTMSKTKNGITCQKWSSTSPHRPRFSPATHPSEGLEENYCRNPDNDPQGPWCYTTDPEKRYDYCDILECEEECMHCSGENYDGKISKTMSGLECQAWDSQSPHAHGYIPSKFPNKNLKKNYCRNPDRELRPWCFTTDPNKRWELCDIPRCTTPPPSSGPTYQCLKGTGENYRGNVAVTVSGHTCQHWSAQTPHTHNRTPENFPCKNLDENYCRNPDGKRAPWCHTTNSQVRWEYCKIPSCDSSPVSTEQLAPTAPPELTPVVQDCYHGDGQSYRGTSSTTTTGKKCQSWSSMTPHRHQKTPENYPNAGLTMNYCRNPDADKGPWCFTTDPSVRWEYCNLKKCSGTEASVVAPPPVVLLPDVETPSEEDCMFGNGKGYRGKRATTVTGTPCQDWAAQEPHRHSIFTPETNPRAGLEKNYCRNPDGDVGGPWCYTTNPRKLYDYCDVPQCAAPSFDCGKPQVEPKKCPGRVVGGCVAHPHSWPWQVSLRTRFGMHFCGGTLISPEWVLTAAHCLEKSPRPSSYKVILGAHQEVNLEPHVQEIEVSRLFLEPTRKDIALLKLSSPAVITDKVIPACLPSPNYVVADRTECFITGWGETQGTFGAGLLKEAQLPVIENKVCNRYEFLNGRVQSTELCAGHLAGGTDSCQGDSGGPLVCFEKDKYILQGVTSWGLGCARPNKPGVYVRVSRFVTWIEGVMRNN

[2] = target: T2, streptokinase (S8026) (Sigma, Deisenhofen), P00779
T2 chain: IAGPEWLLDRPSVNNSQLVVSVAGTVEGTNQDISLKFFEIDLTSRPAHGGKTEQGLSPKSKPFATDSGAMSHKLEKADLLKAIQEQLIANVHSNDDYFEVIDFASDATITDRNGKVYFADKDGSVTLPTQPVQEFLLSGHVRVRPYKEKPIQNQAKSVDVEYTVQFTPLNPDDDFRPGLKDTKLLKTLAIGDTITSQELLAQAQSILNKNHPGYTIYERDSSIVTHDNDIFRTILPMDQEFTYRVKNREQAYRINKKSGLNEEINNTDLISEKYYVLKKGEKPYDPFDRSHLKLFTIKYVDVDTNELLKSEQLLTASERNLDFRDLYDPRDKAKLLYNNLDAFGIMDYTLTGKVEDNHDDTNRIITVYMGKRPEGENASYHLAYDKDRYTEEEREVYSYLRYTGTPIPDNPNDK

B1: Clostripain (protein)
chain: NKNQKVTIMYYCDADNNLEGSLLNDIEEMKTGYKDSPNLNLIALVDRSPRYSSDEKVLGEDFSDTRLYKIEHNKANRLDGKNEFPEISTTSKYEANMGDPEVLKKFIDYCKSNYEADKYVLIMANHGGGAREKSNPRLNRAICWDDSNLDKNGEADCLYMGEISDHLTEKQSVDLLAFDACLMGTAEVAYQYRPGNGGFSADTLVASSPVVWGPGFKYDKIFDRIKAGGGTNNEDDLTLGGKEQNFDPATITNEQLGALFVEEQRDSTHANGRYDQHLSFYDLKKAESVKRAIDNLAVNLSNENKKSEIEKLRGSGIHTDLMHYFDEYSEGEWVEYPYFDVYDLCEKINKSENFSSKTKDLASNAMNKLNEMIVYSFGDPSNNFKEGKNGLSIFLPNGDKKYSTYYTSTKIPHWTMQSWYNSIDTVKYGLNPYGKLSWCKDGQDPEINKVGNWFELLDSWFDKTNDVTGGVNHYQW
plasmin activity after activation [1]: 1.7 U/mg

B2: recombinant human Lys-plasminogen secreted by Pichia pastoris carrying pSM54.2, pAC37.1 or pJW9.1 (alpha-factor prepropeptide joined by a Kex2 and two Ste13 … (protein)
chain: KVYLSECKTGNGKNYRGTMSKTKNGITCQKWSSTSPHRPRFSPATHPSEGLEENYCRNPDNDPQGPWCYTTDPEKRYDYCDILECEEECMHCSGENYDGKISKTMSGLECQAWDSQSPHAHGYIPSKFPNKNLKKNYCRNPDRELRPWCFTTDPNKRWELCDIPRCTTPPPSSGPTYQCLKGTGENYRGNVAVTVSGHTCQHWSAQTPHTHNRTPENFPCKNLDENYCRNPDGKRAPWCHTTNSQVRWEYCKIPSCDSSPVSTEQLAPTAPPELTPVVQDCYHGDGQSYRGTSSTTTTGKKCQSWSSMTPHRHQKTPENYPNAGLTMNYCRNPDADKGPWCFTTDPSVRWEYCNLKKCSGTEASVVAPPPVVLLPDVETPSEEDCMFGNGKGYRGKRATTVTGTPCQDWAAQEPHRHSIFTPETNPRAGLEKNYCRNPDGDVGGPWCYTTNPRKLYDYCDVPQCAAPSFDCGKPQVEPKKCPGRVVGGCVAHPHSWPWQVSLRTRFGMHFCGGTLISPEWVLTAAHCLEKSPRPSSYKVILGAHQEVNLEPHVQEIEVSRLFLEPTRKDIALLKLSSPAVITDKVIPACLPSPNYVVADRTECFITGWGETQGTFGAGLLKEAQLPVIENKVCNRYEFLNGRVQSTELCAGHLAGGTDSCQGDSGGPLVCFEKDKYILQGVTSWGLGCARPNKPGVYVRVSRFVTWIEGVMRNN
plasminogen activity after streptokinase activation, fermentation for 250 h, KM71H/pJW9.1-3 [2]: a plasminogen activity of 1375 U/l
plasminogen activity of culture supernatant after activation with streptokinase, 72 h of induction, KM71H/pSM54.2-1/1 [2]: 2 U/l
plasminogen activity of culture supernatant after activation with streptokinase, 72 h of induction, KM71H/pSM54.2-1/2 [2]: 8 U/l
plasminogen activity of culture supernatant after activation with streptokinase, 72 h of induction, KM71H/pSM54.2-1/3 [2]: 6 U/l
plasminogen activity of culture supernatant after activation with streptokinase, 118 h of induction, KM71H/pSM54.2-1/1 [2]: 8 U/l
plasminogen activity of culture supernatant after activation with streptokinase, 118 h of induction, KM71H/pSM54.2-1/2 [2]: 17 U/l
plasminogen activity of culture supernatant after activation with streptokinase, 118 h of induction, KM71H/pSM54.2-1/3 [2]: 13 U/l
plasminogen activity of culture supernatant after activation with streptokinase, 120 h of induction, KM71/pAC37.1-3/1 [2]: an activity of 120 U/l
plasminogen activity of culture supernatant after activation with streptokinase, 216 h of induction, KM71/pAC37.1-3/1 [2]: an activity of 190 U/l
plasminogen activity of culture supernatant after activation with streptokinase, BSM minimal medium, 120 h of induction, KM71/pAC37.1-3/1 [2]: a plasminogen activity of 193 U/l
plasminogen activity of culture supernatant after activation with streptokinase, BSM minimal medium, 168 h of induction, KM71/pAC37.1-3/1 [2]: 289 U/l

B3: recombinant human Lys-plasminogen secreted by Pichia pastoris KM71H/pMHS476.1 (alpha-factor prepropeptide joined by a Kex2 cleavage site) (protein)
chain: KVYLSECKTGNGKNYRGTMSKTKNGITCQKWSSTSPHRPRFSPATHPSEGLEENYCRNPDNDPQGPWCYTTDPEKRYDYCDILECEEECMHCSGENYDGKISKTMSGLECQAWDSQSPHAHGYIPSKFPNKNLKKNYCRNPDRELRPWCFTTDPNKRWELCDIPRCTTPPPSSGPTYQCLKGTGENYRGNVAVTVSGHTCQHWSAQTPHTHNRTPENFPCKNLDENYCRNPDGKRAPWCHTTNSQVRWEYCKIPSCDSSPVSTEQLAPTAPPELTPVVQDCYHGDGQSYRGTSSTTTTGKKCQSWSSMTPHRHQKTPENYPNAGLTMNYCRNPDADKGPWCFTTDPSVRWEYCNLKKCSGTEASVVAPPPVVLLPDVETPSEEDCMFGNGKGYRGKRATTVTGTPCQDWAAQEPHRHSIFTPETNPRAGLEKNYCRNPDGDVGGPWCYTTNPRKLYDYCDVPQCAAPSFDCGKPQVEPKKCPGRVVGGCVAHPHSWPWQVSLRTRFGMHFCGGTLISPEWVLTAAHCLEKSPRPSSYKVILGAHQEVNLEPHVQEIEVSRLFLEPTRKDIALLKLSSPAVITDKVIPACLPSPNYVVADRTECFITGWGETQGTFGAGLLKEAQLPVIENKVCNRYEFLNGRVQSTELCAGHLAGGTDSCQGDSGGPLVCFEKDKYILQGVTSWGLGCARPNKPGVYVRVSRFVTWIEGVMRNN
plasminogen activity of culture supernatant after activation with streptokinase (N-tosyl-Gly-Pro-Lys-pNA conversion), 72 h of induction, KM71H/pMHS476.1-1/1 [2]: 2 U/l
plasminogen activity of culture supernatant after activation with streptokinase (N-tosyl-Gly-Pro-Lys-pNA conversion), 72 h of induction, KM71H/pMHS476.1-1/2 [2]: 2 U/l
plasminogen activity of culture supernatant after activation with streptokinase (N-tosyl-Gly-Pro-Lys-pNA conversion), 72 h of induction, KM71H/pMHS476.1-1/3 [2]: 1 U/l
plasminogen activity of culture supernatant after activation with streptokinase (N-tosyl-Gly-Pro-Lys-pNA conversion), 118 h of induction, KM71H/pMHS476.1-1/1 [2]: 7 U/l
plasminogen activity of culture supernatant after activation with streptokinase (N-tosyl-Gly-Pro-Lys-pNA conversion), 118 h of induction, KM71H/pMHS476.1-1/2 [2]: 9 U/l
plasminogen activity of culture supernatant after activation with streptokinase (N-tosyl-Gly-Pro-Lys-pNA conversion), 118 h of induction, KM71H/pMHS476.1-1/3 [2]: 8 U/l
